From US20180194841A1
pEC50, pKd: −log10 of the molar value.

How the values were obtained:
[1] = target: His-tagged human FcγRI (human) (UniProt P12314); assay: SPR (Biacore T200), 25 C, His-tagged FcγRI captured on anti-penta-His chip, antibody injected, 1:1 fit
[2] = target: His-tagged cynomolgus FcγRIIB (cynomolgus); assay: SPR steady-state, 25 C, His-tagged FcγR captured, antibody injected
[3] = target: His-tagged human FcγRIIB (human) (UniProt P31994); assay: as above
[4] = target: His-tagged human FcγRIIA (R131) (human) (UniProt P12318); assay: as above
[5] = target: His-tagged cynomolgus FcγRIIA (cynomolgus); assay: as above
[6] = target: His-tagged cynomolgus FcγRIIIA (cynomolgus) (UniProt Q8SPW2); assay: as above
[7] = target: His-tagged human FcγRIIIA (V176) (human) (UniProt P08637); assay: as above
[8] = target: His-tagged human FcγRIIA (H131) (human) (UniProt P12318); assay: as above
[9] = target: His-tagged human FcγRIIIA (F176) (human) (UniProt P08637); assay: as above
[10] = target: His-tagged human FcγRIIIB (human) (UniProt O75015); assay: as above
[11] = target: cynomolgus CD3 (on cynomolgus T cells from PBMCs, "mkT cells") (cynomolgus) (UniProt Q95LI5); assay: FACS, serially diluted antibody on cynomolgus T cells (CD2+CD4+ gate of PBMCs)
[12] = target: Fc receptors (FcR) on U937 cells; assay: cell-based or functional assay
[13] = target: human CD3 (on Jurkat cells, CD3+, CD20- human T-cell line; on human T cells) (human) (UniProt P07766); assay: FACS, serially diluted antibody on Jurkat cells (CD3+, CD20-)

Sequence of His-tagged human FcγRI (human) (P12314 16-288 limits assumed): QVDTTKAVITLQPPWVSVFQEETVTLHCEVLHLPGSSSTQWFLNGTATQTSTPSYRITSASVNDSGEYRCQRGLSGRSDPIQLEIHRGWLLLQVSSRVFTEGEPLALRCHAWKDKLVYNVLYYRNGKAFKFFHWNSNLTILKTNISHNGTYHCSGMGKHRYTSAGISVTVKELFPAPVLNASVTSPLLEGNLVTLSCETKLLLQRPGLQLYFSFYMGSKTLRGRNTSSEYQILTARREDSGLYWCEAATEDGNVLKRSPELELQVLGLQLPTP
Sequence of His-tagged human FcγRIIIA (V176) (human) (P08637 17-208 F176V limits assumed): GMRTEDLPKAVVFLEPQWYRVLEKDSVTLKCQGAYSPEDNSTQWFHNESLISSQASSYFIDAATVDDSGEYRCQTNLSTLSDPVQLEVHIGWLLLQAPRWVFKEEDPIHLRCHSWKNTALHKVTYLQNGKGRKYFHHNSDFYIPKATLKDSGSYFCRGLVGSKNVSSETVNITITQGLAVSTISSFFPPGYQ
Sequence of His-tagged human FcγRIIIA (F176) (human) (P08637 17-208 limits assumed): as the sequence (P08637 17-208 F176V limits assumed) above, with V160F counted along it
Sequence of His-tagged human FcγRIIA (H131) (human) (P12318 36-218 limits assumed): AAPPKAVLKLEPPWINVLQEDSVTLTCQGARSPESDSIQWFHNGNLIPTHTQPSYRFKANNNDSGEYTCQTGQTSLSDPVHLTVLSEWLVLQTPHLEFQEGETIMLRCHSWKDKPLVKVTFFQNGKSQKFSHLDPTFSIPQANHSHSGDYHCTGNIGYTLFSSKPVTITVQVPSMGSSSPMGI
Sequence of His-tagged cynomolgus FcγRIIIA (cynomolgus) (Q8SPW2 17-208 limits assumed): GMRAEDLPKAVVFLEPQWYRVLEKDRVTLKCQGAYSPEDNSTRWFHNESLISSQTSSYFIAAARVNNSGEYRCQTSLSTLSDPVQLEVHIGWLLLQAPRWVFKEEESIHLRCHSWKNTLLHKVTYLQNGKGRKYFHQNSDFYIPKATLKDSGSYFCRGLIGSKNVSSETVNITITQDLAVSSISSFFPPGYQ
Sequence of His-tagged human FcγRIIIB (human) (O75015 17-200 limits assumed): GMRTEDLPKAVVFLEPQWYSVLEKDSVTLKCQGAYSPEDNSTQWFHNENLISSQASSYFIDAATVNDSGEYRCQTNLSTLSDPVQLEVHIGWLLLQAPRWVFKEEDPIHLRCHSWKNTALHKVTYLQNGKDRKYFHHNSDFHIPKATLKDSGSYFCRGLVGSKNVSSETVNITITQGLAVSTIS
Sequence of cynomolgus CD3 (on cynomolgus T cells from PBMCs, "mkT cells") (cynomolgus) (Q95LI5 22-198, chain 1 of 3): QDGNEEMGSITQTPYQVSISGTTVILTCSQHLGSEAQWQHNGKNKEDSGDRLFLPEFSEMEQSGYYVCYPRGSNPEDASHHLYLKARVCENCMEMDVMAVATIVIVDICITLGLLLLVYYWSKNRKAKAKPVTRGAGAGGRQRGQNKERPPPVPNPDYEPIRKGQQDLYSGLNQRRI
Sequence of cynomolgus CD3 (on cynomolgus T cells from PBMCs, "mkT cells") (cynomolgus) (Q95LI8 22-171, chain 2 of 3, further chain): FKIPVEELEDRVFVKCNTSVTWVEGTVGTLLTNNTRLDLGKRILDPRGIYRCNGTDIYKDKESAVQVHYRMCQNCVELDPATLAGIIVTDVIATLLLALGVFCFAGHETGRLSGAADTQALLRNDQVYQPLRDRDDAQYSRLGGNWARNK
Sequence of cynomolgus CD3 (on cynomolgus T cells from PBMCs, "mkT cells") (cynomolgus) (Q95LI7 23-181, chain 3 of 3, further chain): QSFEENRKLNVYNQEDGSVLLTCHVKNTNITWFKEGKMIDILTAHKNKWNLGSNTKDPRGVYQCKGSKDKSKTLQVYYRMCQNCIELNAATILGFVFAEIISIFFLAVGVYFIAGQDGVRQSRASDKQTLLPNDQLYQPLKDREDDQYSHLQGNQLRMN
Sequence of His-tagged human FcγRIIB (human) (P31994 46-217 limits assumed): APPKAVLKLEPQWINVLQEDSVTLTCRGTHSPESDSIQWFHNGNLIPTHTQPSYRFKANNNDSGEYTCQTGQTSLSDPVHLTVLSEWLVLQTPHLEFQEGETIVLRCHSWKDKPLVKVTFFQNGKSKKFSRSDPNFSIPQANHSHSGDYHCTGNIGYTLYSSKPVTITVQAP
Sequence of His-tagged human FcγRIIA (R131) (human) (P12318 36-218 H167R limits assumed): as the sequence (P12318 36-218 limits assumed) above, with H132R counted along it

pKd [1]	T1/2 [1]	koff [1]	kon [1]	pKd [2]	pKd [3]	pKd [4]	pKd [5]	pKd [6]	pKd [7]	pKd [8]	pKd [9]	pKd [10]	pEC50 [11]	pEC50 [13]	Substance	U937 Cytotoxicity Human T-cells [M] (EC50, calcein release) [12]
7.86	5 min	0.00236 s⁻¹	171000 M⁻¹ s⁻¹	5.02	5.01	5.00	4.71	5.24	5.00	4.92	4.59				wt-IgG4 CPPC Isotype Control (antibody)	
8.37	15 min			5.38			5.38	6.22	5.82	5.96	5.89	5.64			wt-IgG1 Isotype Control (from UniProt P01857 1-328) (antibody)	
													10.15		Control Antibody 2: Antibody "SP34" reactive against the epsilon chain of the T3 complex on human T lymphocyte cells	
														9.71	Control Antibody 1: Monoclonal antibody "OKT-3" against human T-cell surface antigens	3.04e-12 M
